From US20220041746A1 (Sanofi, published 2022) come the findings set out here.

Assay [1] has as its target T1, CD38 isoform A (SEQ ID NO:1) (human, UniProt P28907 45-300).
T1 construct: also called huCD38 isoform A
Kind of assay: ELISA, plate coated with the CD38 isoform. Here is the method: (§1) 96-well plates were coated with either isoform at 0.5 μg/well in PBS and 100 μL/well of antibodies were added to the plate. The plate was incubated at 37° C. for 1 h and washed five times with PBS containing 0.05% Tween-20 (PBS-T). […] Following incubation at 37° C. for 1 h in darkness, plates were washed with PBS-T five times. Antibody binding w as visualized by adding TMB-H2O2 buffer and read at a wavelength of 450 nm. EC50 values were estimated using BIOST@T-SPEED software.
A general note: An ELISA detects its analyte on a solid surface through an enzyme-linked reagent.

Assay [2] addresses T2, CD38 isoform E (SEQ ID NO:105) (human, UniProt P28907 45-195, limits assumed).
T2 construct: also called huCD38 isoform E
Kind of assay: ELISA, plate coated with the CD38 isoform. Here is the method:
as §1

Assay [3] has as its target T3, human CD38 expressed on the cell surface (human, UniProt P28907 1-300).
T3 construct: whole, on cells; also called hCD38-expressing cells; huCD38
Kind of assay: flow cytometry on SU-DHL-8 cells (SUDHL8). In general terms: In flow cytometry, cells or beads pass a laser one at a time.

The target of assay [4] is T3, human CD38 expressed on the cell surface. Kind of assay: flow cytometry on preB::300.19 cells, apparent KD. Here is the method: (§2) The recombinant cell line was described by J. Deckket et al. 2014 Clin Cancer Res 20:4574-4583. […] Antibody binding was evaluated after centrifugation and resuspension of cells by adding 200 μL/well PBS 1% BSA and read using Guava® easvCyte™ 8HT Flow Cytometry System. Apparent KD and EC50 values were estimated using BIOST@T-BINDING and BIOST@T-SPEED software, respectively.

Assay [5] addresses T4, cynomolgus monkey CD38 expressed on the cell surface (cynomolgus monkey, UniProt Q5VAN0 1-301).
T4 construct: whole, on cells; also called cCD38-expressing cells
The assay is described as follows: flow cytometry on preB::300.19 cells, apparent KD. Here is the method: as §2

Assay [6] addresses T3, human CD38 expressed on the cell surface. Kind of assay: flow cytometry on preB::300.19 cells, apparent KD. Here is the method: as §2
The source holds these as a separate data set.

Assay [7] addresses T4, cynomolgus monkey CD38 expressed on the …. The assay is described as follows: flow cytometry on preB::300.19 cells, apparent KD. Here is the method: as §2
The source holds these as a separate data set.

Assay [8] has the same target. Kind of assay: flow cytometry on PreB cynoCD38-expressing cells.
In assay [9] the target is T5, hCD38-his (SEQ ID NO: 2) (human, UniProt P28907 45-300).
T5 construct: His-tagged soluble protein derived from isoform A; also called human CD38-histag; hCD38::Histag
Kind of assay: SPR, mAb captured via anti-human Fc, soluble CD38-his injected. The method, then:
(§3) The binding properties of the anti-huCD38 mabs were evaluated using a BIAcore 2000 (BIAcore Inc., Uppsala, Ni). […] The surface was regenerated between injections using 30 μL of 50 mM NaOH-1 M NaCl. Individual sensorgrams wore analyzed using BIAsimulation software.
On the technique in general: SPR reads the build-up and loss of mass on a sensor chip optically.

Assay [10] deals with T6, cCD38-his (SEQ ID NO: 4) (cynomolgus monkey, UniProt Q5VAN0 46-301).
T6 construct: His-tagged soluble protein; also called cyno CD38-histag; cynoCD38::Histag
The assay is described as above. The method, then: as §3

In assay [11] the target is T5, hCD38-his (SEQ ID NO: 2). Described as above. Here is the method: as §3
The source holds these as a separate data set.

For assay [12], the target named is T6, cCD38-his (SEQ ID NO: 4). Described as above. Here is the method:
as §3
This is another data set of the same source.

In assay [13] the target is T3, human CD38 expressed on the cell surface. The assay is described as follows: flow cytometry on MOLP-8 multiple myeloma cells [Cont.].
For assay [14], the target named is T7, recombinant human CD38 (SPR of Example 4) (human, UniProt P28907 45-300, limits assumed). Kind of assay: SPR, target binding without other targets present. Here is the method:
(§4) Surface regenerate was conducted by injecting 10 mM Glycine-HCl pH 2.5 for 60 sec at 30 μl/min. […] Equilibrium dissociation constant (KD) was calculated using association rate constant (kₒₙ) and dissociation rate constant (koff).
(§5) Next, each antigen binding domain of the CD38SB19×CD28ₛᵤₚ×CD3mid specific binding protein was evaluated by SPR for the ability to bind cognate antigen with and without the other two antigen binding domains in saturation.

Assay [15] deals with T3, human CD38 expressed on the cell surface. Kind of assay: flow cytometry on preB::300.19 cells, apparent KD. The method, then: (§6) The recombinant cell line was described by J. Deckket et al. 2014 Clin. Cancer Res 20:4574-4583. […] Antibody binding was evaluated after centrifugation and resuspension of cells by adding 200 μl/well PBS 1% BSA and read using Guava® easyCyte™ 8HT Flow Cytometry System. Apparent KD and EC50 values were estimated using BIOST®T-BINDING and BIOST®T-SPEED software, respectively.
This is another data set of the same source.

For assay [16] the target is unchanged. Kind of assay: flow cytometry on 300.19 huCD38 cells (PréB hCD38). The method, then:
as §6

Assay [17] has as its target T7, recombinant human CD38 (SPR of Example …). The assay is described as follows: SPR, target binding with the other two targets in saturation. Here is the method: as §4, §5
Assay [18] shares this target. The assay is described as follows: SPR.
Assay [19] addresses T4, cynomolgus monkey CD38 expressed on the …. The assay is described as follows: flow cytometry on 300.19 cynoCD38 cells (PréB cCD38). Here is the method:
as §6

Values joined by “and” are separate entries in the source; they are usually repeats but may differ in a detail not shown here. Equal entries are not always repeated. Where two headings read alike, the source gives them in different places.

B1: mAb1 (antibody, human IgG1, kappa, V domains shown)
VH: QVQLQQSGAELVRSGASVKMSCKASGYTFTSFNMHWVKETPGQGLEWIGYIYPGNGGTNYNQKFKGKATLTADTSSSTAYMQISSLTSEDSAVYFCARTGGLRRAYFTYWGQGTLVTVSS
VL: DIVLTQSPASLAVSLGQRATISCRASESVDSYGNGFMHWYQQKPGQPPKLLIYLASNLESGVPARFSGSGSRTDFTLTIDPVEADDAATYYCQQNKEDPWTFGGGTKLEIKR
notes: also called antiCD38_C2-CD38-1
As a reminder, the EC50 is the concentration that produces a half-maximal response. For orientation: koff means a measure of how fast the partners let go of each other. Take B1: the EC50 was 0.11 nM in assay [1]; 0.08 nM in assay [2]; 0.24 nM and 0.0366 µg/mL in [3]; 0.033 µg/mL and 0.15 nM in assay [8]; 0.98 nM and 0.148 µg/mL in [13]. In addition, the Kd in assay [4] turned out to be 0.28 nM; in assay [5], 0.22 nM; in [6] it was 0.28 nM; in assay [7] it was 0.22 nM; in [9] it was 0.336 nM; in assay [10], 0.39 nM. The Kd came out at 0.336 nM in assay [11] and 0.39 nM in [12]. In addition, the off-rate constant (koff) in [9] was 0.000266 s⁻¹; in assay [10], 9.85e-05 s⁻¹; in assay [11], 0.000266 s⁻¹; in assay [12] it was 9.85e-05 s⁻¹.

B2: CD38SB19×CD28sup×CD3mid trispecific binding protein (other)
VH 1: QVQLVQSGAEVAKPGTSVKLSCKASGYTFTDYWMQWVKQRPGQGLEWIGTIYPGDGDTGYAQKFQGKATLTADKSSKTVYMHLSSLASEDSAVYYCARGDYYGSNSLDYWGQGTSVTVSS
VL 1: DIVMTQSHLSMSTSLGDPVSITCKASQDVSTVVAWYQQKPGQSPRRLIYSASYRYIGVPDRFTGSGAGTDFTFTISSVQAEDLAVYYCQQHYSPPYTFGGGTKLEIK
VH 2: QVQLVQSGAEVVKPGASVKVSCKASGYTFTSYYIHWVRQAPGQGLEWIGSIYPGNVNTNYAQKFQGRATLTVDTSISTAYMELSRLRSDDTAVYYCTRSHYGLDWNFDVWGKGTTVTVSS
VL 2: DIQMTQSPSSLSASVGDRVTITCQASQNIYVWLNWYQQKPGKAPKLLIYKASNLHTGVPSRFSGSGSGTDFTLTISSLQPEDIATYYCQQGQTYPYTFGQGTKLEIK
VH 3: QVQLVESGGGVVQPGRSLRLSCAASGFTFTKAWMHWVRQAPGKQLEWVAQIKDKSNSYATYYADSVKGRFTISRDDSKNTLYLQMNSLRAEDTAVYYCRGVYYALSPFDYWGQGTLVTVSS
VL 3: DIVMTQTPLSLSVTPGQPASISCKSSQSLVHNNANTYLSWYLQKPGQSPQSLIYKVSNRFSGVPDRFSGSGSGTDFTLKISRVEAEDVGVYYCGQGTQYPFTFGSGTKVEIK
Consider B2, for which the Kd in assay [14] was found to be 1.75 nM; in assay [15], 4 nM; in assay [17], 2.42 nM. Also, the 50% effective concentration (EC50) in assay [16] is 4 nM and 0.603 µg/mL.

B3: CD38HHY1370×CD28sup×CD3mid (other)
VH 1: QVQLVESGGGVVQPGRSLRLSCAASGFTFSSYGMHWVRQAPGKGLEWVAVIWYDGSNKYYADSVKGRFTISGDNSKNTLYLQMNSLRAEDTAVYYCARMFRGAFDYWGQGTLVTVSS
VL 1: AIQMTQSPSSLSASVGDRVTITCRASQGIRNDLGWYQQKPGKAPKLLIYAASSLQSGVPSRFSGSGSGTDFTLTISGLQPEDSATYYCLQDYIYYPTFGQGTKVEIK
VH 2: B2 VH 2
VL 2: B2 VL 2
VH 3: B2 VH 3
VL 3: B2 VL 3
As for B3, the Kd in assay [18] was found to be 1 nM. In addition, the binding result in assay [19] was “binds”.
